Test results published in patent publication US20230220589A1.
Each block holds one binder with its values, some of them ahead of it.

What was measured:
[1] = molecular target: M44-modified T NTAA target peptides; test: encoding assay; P2 Y
[2] = molecular target: M44-modified M NTAA target peptides; test: encoding assay; P2 Y
[3] = molecular target: M44-modified L NTAA target peptides (M44-L-P2-peptide); test: encoding assay; P2 Y;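 also: fraction of recording tags encoded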
[4] = molecular target: M44-modified F NTAA target peptides (M44-F-P2-peptide); test: encoding assay; P2 Y;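 also: fraction of recording tags encoded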
[5] = molecular target: M44-modified Y NTAA target peptides (M44-Y-P2-peptide); test: encoding assay; P2 Y;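 also: fraction of recording tags encoded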
[6] = molecular target: M44-modified G NTAA target peptides (M44-G-P2-peptide); test: encoding assay; P2 Y;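 also: fraction of recording tags encoded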
[7] = molecular target: M44-modified H NTAA target peptides; test: encoding assay; P2 Y
[8] = molecular target: M44-modified N NTAA target peptides; test: encoding assay; P2 Y
[9] = molecular target: M44-modified W NTAA target peptides; test: encoding assay; P2 Y;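 also: fraction of recording tags encoded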
[10] = molecular target: M44-modified I NTAA target peptides (M44-I-P2-peptide); test: encoding assay; P2 Y
[11] = molecular target: M44-modified A NTAA target peptides (M44-A-P2-peptide); test: encoding assay; P2 Y
[12] = molecular target: M44-modified P NTAA target peptides; test: encoding assay; P2 Y;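 also: fraction of recording tags encoded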
[13] = molecular target: M44-modified D NTAA target peptides; test: encoding assay; P2 Y;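 also: fraction of recording tags encoded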
[14] = molecular target: M44-modified E NTAA target peptides; test: encoding assay; P2 Y;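 also: fraction of recording tags encoded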
[15] = molecular target: M44-modified T NTAA target peptides; test: encoding assay; P2 T
[16] = molecular target: M44-modified M NTAA target peptides; test: encoding assay; P2 T
[17] = molecular target: M44-modified L NTAA target peptides (M44-L-P2-peptide); test: encoding assay; P2 T;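 also: fraction of recording tags encoded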
[18] = molecular target: M44-modified F NTAA target peptides (M44-F-P2-peptide); test: encoding assay; P2 T;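 also: fraction of recording tags encoded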
[19] = molecular target: M44-modified V NTAA target peptides; test: encoding assay; P2 T;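 also: fraction of recording tags encoded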
[20] = molecular target: M44-modified Y NTAA target peptides (M44-Y-P2-peptide); test: encoding assay; P2 T;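 also: fraction of recording tags encoded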
[21] = molecular target: M44-modified G NTAA target peptides (M44-G-P2-peptide); test: encoding assay; P2 T;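 also: fraction of recording tags encoded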
[22] = molecular target: M44-modified N NTAA target peptides; test: encoding assay; P2 T
[23] = molecular target: M44-modified Q NTAA target peptides; test: encoding assay; P2 T
[24] = molecular target: M44-modified I NTAA target peptides (M44-I-P2-peptide); test: encoding assay; P2 T
[25] = molecular target: M44-modified A NTAA target peptides (M44-A-P2-peptide); test: encoding assay; P2 T
[26] = molecular target: M44-modified P NTAA target peptides; test: encoding assay; P2 T;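 also: fraction of recording tags encoded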
[27] = molecular target: M44-modified E NTAA target peptides; test: encoding assay; P2 T;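 also: fraction of recording tags encoded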
[28] = molecular target: M44-modified L NTAA target peptides (M44-L-P2-peptide); test: encoding assay; P2 E;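 also: fraction of recording tags encoded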
[29] = molecular target: M44-modified F NTAA target peptides (M44-F-P2-peptide); test: encoding assay; P2 E;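 also: fraction of recording tags encoded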
[30] = molecular target: M44-modified Y NTAA target peptides (M44-Y-P2-peptide); test: encoding assay; P2 E;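 also: fraction of recording tags encoded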
[31] = molecular target: M44-modified W NTAA target peptides; test: encoding assay; P2 E;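 also: fraction of recording tags encoded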
[32] = molecular target: M44-modified I NTAA target peptides (M44-I-P2-peptide); test: encoding assay; P2 E
[33] = molecular target: M44-modified P NTAA target peptides; test: encoding assay; P2 E;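 also: fraction of recording tags encoded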
[34] = molecular target: M44-modified S NTAA target peptides; test: encoding assay; P2 E
[35] = molecular target: M44-modified T NTAA target peptides; test: encoding assay; P2 W
[36] = molecular target: M44-modified M NTAA target peptides; test: encoding assay; P2 W
[37] = molecular target: M44-modified L NTAA target peptides (M44-L-P2-peptide); test: encoding assay; P2 W;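 also: fraction of recording tags encoded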
[38] = molecular target: M44-modified F NTAA target peptides (M44-F-P2-peptide); test: encoding assay; P2 W;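 also: fraction of recording tags encoded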
[39] = molecular target: M44-modified V NTAA target peptides; test: encoding assay; P2 W;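 also: fraction of recording tags encoded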
[40] = molecular target: M44-modified Y NTAA target peptides (M44-Y-P2-peptide); test: encoding assay; P2 W;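 also: fraction of recording tags encoded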
[41] = molecular target: M44-modified G NTAA target peptides (M44-G-P2-peptide); test: encoding assay; P2 W;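 also: fraction of recording tags encoded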
[42] = molecular target: M44-modified H NTAA target peptides; test: encoding assay; P2 W
[43] = molecular target: M44-modified N NTAA target peptides; test: encoding assay; P2 W
[44] = molecular target: M44-modified Q NTAA target peptides; test: encoding assay; P2 W
[45] = molecular target: M44-modified W NTAA target peptides; test: encoding assay; P2 W;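 also: fraction of recording tags encoded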
[46] = molecular target: M44-modified I NTAA target peptides (M44-I-P2-peptide); test: encoding assay; P2 W
[47] = molecular target: M44-modified A NTAA target peptides (M44-A-P2-peptide); test: encoding assay; P2 W
[48] = molecular target: M44-modified P NTAA target peptides; test: encoding assay; P2 W;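 also: fraction of recording tags encoded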
[49] = molecular target: M44-modified D NTAA target peptides; test: encoding assay; P2 W;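 also: fraction of recording tags encoded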
[50] = molecular target: M44-modified S NTAA target peptides; test: encoding assay; P2 W

encoding yield [1]: 0.1
encoding yield [2]: 0.06
encoding yield [3]: 0.1
encoding yield [4]: 0.04
encoding yield [5]: 0.04
encoding yield [6]: 0.08
encoding yield [7]: 0.07
encoding yield [8]: 0.03
encoding yield [9]: 0.05
encoding yield [10]: 0.11
encoding yield [11]: 0.29
encoding yield [12]: 0.03
encoding yield [13]: 0.04
encoding yield [14]: 0.02
encoding yield [15]: 0.1
encoding yield [16]: 0.01
encoding yield [17]: 0.05
encoding yield [18]: 0.04
encoding yield [19]: 0.05
encoding yield [20]: 0.05
encoding yield [21]: 0.07
encoding yield [22]: 0.03
encoding yield [23]: 0.05
encoding yield [24]: 0.05
encoding yield [25]: 0.24
encoding yield [26]: 0.05
encoding yield [27]: 0.01
encoding yield [28]: 0.04
encoding yield [29]: 0.02
encoding yield [30]: 0.06
encoding yield [31]: 0.04
encoding yield [32]: 0.02
encoding yield [33]: 0.05
encoding yield [34]: 0.02
encoding yield [35]: 0.13
encoding yield [36]: 0.03
encoding yield [37]: 0.07
encoding yield [38]: 0.18
encoding yield [39]: 0.22
encoding yield [40]: 0.06
encoding yield [41]: 0.02
encoding yield [42]: 0.04
encoding yield [43]: 0.05
encoding yield [44]: 0.03
encoding yield [45]: 0.05
encoding yield [46]: 0.21
encoding yield [47]: 0.28
encoding yield [48]: 0.04
encoding yield [49]: 0.02
encoding yield [50]: 0.13
B1: engineered M44-A binder (SEQ ID NO: 42) (designed binder, not shown: small tags and cut ends; large carriers)
chain: QVSVQPNFQQDKFLGRWFVAGLASNSSWDREKVAALSGAKMVVAPATDGGLNVTRTMLRKNQCETYTGLLQPAGSLGSYSWRSPHPGSTGSESVVETDYDQYALVYGQGSKGPGEDLRAAALWSRTQTPRAELKEKFTAFSKAQGFTEDTIVFLPQTDKCMTEQ

encoding yield [1]: 0.01
encoding yield [2]: 0.04
encoding yield [3]: 0.08
encoding yield [4]: 0.02
encoding yield [5]: 0.02
encoding yield [6]: 0.01
encoding yield [7]: 0.03
encoding yield [8]: 0.01
encoding yield [9]: 0.01
encoding yield [10]: 0.07
encoding yield [11]: 0.01
encoding yield [12]: 0.02
encoding yield [13]: 0.01
encoding yield [14]: 0.01
encoding yield [15]: 0.01
encoding yield [16]: 0
encoding yield [17]: 0.1
encoding yield [18]: 0.02
encoding yield [19]: 0.02
encoding yield [20]: 0.02
encoding yield [21]: 0.01
encoding yield [22]: 0.01
encoding yield [23]: 0.01
encoding yield [24]: 0.14
encoding yield [25]: 0.01
encoding yield [26]: 0.01
encoding yield [27]: 0.01
encoding yield [28]: 0.01
encoding yield [29]: 0
encoding yield [30]: 0.02
encoding yield [31]: 0.01
encoding yield [32]: 0
encoding yield [33]: 0.01
encoding yield [34]: 0.01
encoding yield [35]: 0.01
encoding yield [36]: 0.01
encoding yield [37]: 0.03
encoding yield [38]: 0.09
encoding yield [39]: 0.03
encoding yield [40]: 0.02
encoding yield [41]: 0.01
encoding yield [42]: 0.01
encoding yield [43]: 0.01
encoding yield [44]: 0.01
encoding yield [45]: 0.03
encoding yield [46]: 0.14
encoding yield [47]: 0.01
encoding yield [48]: 0.01
encoding yield [49]: 0.01
encoding yield [50]: 0.02
B2: engineered M44-L binder (SEQ ID NO: 21) (designed binder, not shown: small tags and cut ends; large carriers)
chain: QVSVQPNFQQDKFLGRWFYAGHASNSSWYREKVAALSMAKLVVAPATDGGLNATETFLRKNQCETITSLLQPAGSLGSYSSRSPHGGSTWSTSVVETDYDQYALLYLQGSKGPGEDFRGAILASRTQTPRAELKEKFTAFSKAQGFTEDTIVFLPQTDKCMTEQ

encoding yield [1]: 0.05
encoding yield [2]: 0.14
encoding yield [3]: 0.42
encoding yield [4]: 0.13
encoding yield [5]: 0.06
encoding yield [6]: 0.04
encoding yield [7]: 0.09
encoding yield [8]: 0.02
encoding yield [9]: 0.15
encoding yield [10]: 0.16
encoding yield [11]: 0.05
encoding yield [12]: 0.03
encoding yield [13]: 0.05
encoding yield [14]: 0.03
encoding yield [15]: 0.04
encoding yield [16]: 0.01
encoding yield [17]: 0.15
encoding yield [18]: 0.05
encoding yield [19]: 0.04
encoding yield [20]: 0.07
encoding yield [21]: 0.04
encoding yield [22]: 0.02
encoding yield [23]: 0.02
encoding yield [24]: 0.07
encoding yield [25]: 0.03
encoding yield [26]: 0.02
encoding yield [27]: 0.01
encoding yield [28]: 0.03
encoding yield [29]: 0.01
encoding yield [30]: 0.05
encoding yield [31]: 0.03
encoding yield [32]: 0.01
encoding yield [33]: 0.03
encoding yield [34]: 0.03
encoding yield [35]: 0.03
encoding yield [36]: 0.05
encoding yield [37]: 0.17
encoding yield [38]: 0.27
encoding yield [39]: 0.08
encoding yield [40]: 0.11
encoding yield [41]: 0.01
encoding yield [42]: 0.04
encoding yield [43]: 0.04
encoding yield [44]: 0.03
encoding yield [45]: 0.17
encoding yield [46]: 0.25
encoding yield [47]: 0.05
encoding yield [48]: 0.02
encoding yield [49]: 0.04
encoding yield [50]: 0.07
B3: engineered M44-L binder (SEQ ID NO: 31) (designed binder, not shown: small tags and cut ends; large carriers)
chain: QDSTQNLIPAPPLISVPLQPGFWTERFQGRWFLVGFAGNAVQKERQSRLTMQSLILELQEDNSYNITAINVRGQGCRYIISTLVPSSRPGQFTLGNIHSYPQIQSLDVQVADTDYDQFAMVFLQGTSENKQYFEVALAGRTKGLSDELKERFVSFAKSLGLKDNNIVFSVPTDQCIDN
